Assay results as given in IntAct's records for PubMed 12897212.

B1: Melanophilin (Homo sapiens), Q9BV36 (parent)
chain: MGKKLDLSKLTDEEAQHVLEVVQRDFDLRRKEEERLEALKGKIKKESSKRELLSDTAHLNETHCARCLQPYQLLVNSKRQCLECGLFTCKSCGRVHPEEQGWICDPCHLARVVKIGSLEWYYEHVKARFKRFGSAKVIRSLHGRLQGGAGPELISEERSGDSDQTDEDGEPGSEAQAQAQPFGSKKKRLLSVHDFDFEGDSDDSTQPQGHSLHLSSVPEARDSPQSLTDESCSEKAAPHKAEGLEEADTGASGCHSHPEEQPTSISPSRHGALAELCPPGGSHRMALGTAAALGSNVIRNEQLPLQYLADVDTSDEESIRAHVMASHHSKRRGRASSESQIFELNKHISAVECLLTYLENTVVPPLAKGLGAGVRTEADVEEEALRRKLEELTSNVSDQETSSEEEEAKDEKAEPNRDKSVGPLPQADPEVGTAAHQTNRQEKSPQDPGDPVQYNRTTDEELSELEDRVAVTASEVQQAESEVSDIESRIAALRAAGLTVKPSGKPRRKSNLPIFLPRVAGKLGKRPEDPNADPSSEAKAMAVPYLLRRKFSNSLKSQGKDDDSFDRKSVYRGSLTQRNPNARKGMASHTFAKPVVAHQS

Variants of: B1
Details: with rb27a_human RAB27A

Variant	effect of a mutation on the interaction
R35W	disrupting interaction

Variants of: B1
Details: with rb27a_human RAB27A
Remark: another data set of the same source

Variant	effect of a mutation on the interaction
R35F	disrupting interaction
R35K	disrupting interaction
R35V	disrupting interaction
